Source: patent US20260167699A1 (Chugai, published 2026)

B1: GpH7-A5/GpH7-B3 variant L328_14T/GpL16-k0 (antibody, human IgG1, kappa)
heavy 1: not shown
heavy 2: not shown
light: DIVMTQSPLSLPVTPGEPASISCQASESLVHSNRNTYLHWYLQKPGQSPQLLIYKVSNRFSGVPDRFSGSGSGTDFTLKISRVEAEDVGVYYCSQNTHVPPTFGQGTKVEIERTVAAPSVFIFPPSDEQLKSGTASVVCLLNNFYPREAKVQWKVDNALQSGNSQESVTEQDSKDSTYSLSSTLTLSKADYEKHKVYACEVTHQGLSSPVTKSFNRGEC
notes: copies: 1 + 1 + 2
B2: GpH7-A5/GpH7-B3 variant P238_09D/GpL16-k0 (antibody, human IgG1, kappa)
heavy 1: not shown
heavy 2: not shown
light: DIVMTQSPLSLPVTPGEPASISCQASESLVHSNRNTYLHWYLQKPGQSPQLLIYKVSNRFSGVPDRFSGSGSGTDFTLKISRVEAEDVGVYYCSQNTHVPPTFGQGTKVEIERTVAAPSVFIFPPSDEQLKSGTASVVCLLNNFYPREAKVQWKVDNALQSGNSQESVTEQDSKDSTYSLSSTLTLSKADYEKHKVYACEVTHQGLSSPVTKSFNRGEC
notes: copies: 1 + 1 + 2
B3: GpH7-A5/GpH7-B3 variant P238_19Q/GpL16-k0 (antibody, human IgG1, kappa)
heavy 1: not shown
heavy 2: not shown
light: DIVMTQSPLSLPVTPGEPASISCQASESLVHSNRNTYLHWYLQKPGQSPQLLIYKVSNRFSGVPDRFSGSGSGTDFTLKISRVEAEDVGVYYCSQNTHVPPTFGQGTKVEIERTVAAPSVFIFPPSDEQLKSGTASVVCLLNNFYPREAKVQWKVDNALQSGNSQESVTEQDSKDSTYSLSSTLTLSKADYEKHKVYACEVTHQGLSSPVTKSFNRGEC
notes: copies: 1 + 1 + 2
B4: GpH7-A5/GpH7-B3 variant L328_19Q/GpL16-k0 (antibody, human IgG1, kappa)
heavy 1: not shown
heavy 2: not shown
light: DIVMTQSPLSLPVTPGEPASISCQASESLVHSNRNTYLHWYLQKPGQSPQLLIYKVSNRFSGVPDRFSGSGSGTDFTLKISRVEAEDVGVYYCSQNTHVPPTFGQGTKVEIERTVAAPSVFIFPPSDEQLKSGTASVVCLLNNFYPREAKVQWKVDNALQSGNSQESVTEQDSKDSTYSLSSTLTLSKADYEKHKVYACEVTHQGLSSPVTKSFNRGEC
notes: copies: 1 + 1 + 2
B5: GpH7-A5/GpH7-B3 variant P271_01G/GpL16-k0 (antibody, human IgG1, kappa)
heavy 1: not shown
heavy 2: not shown
light: DIVMTQSPLSLPVTPGEPASISCQASESLVHSNRNTYLHWYLQKPGQSPQLLIYKVSNRFSGVPDRFSGSGSGTDFTLKISRVEAEDVGVYYCSQNTHVPPTFGQGTKVEIERTVAAPSVFIFPPSDEQLKSGTASVVCLLNNFYPREAKVQWKVDNALQSGNSQESVTEQDSKDSTYSLSSTLTLSKADYEKHKVYACEVTHQGLSSPVTKSFNRGEC
notes: copies: 1 + 1 + 2
B6: GpH7-A5/GpH7-B3 variant P238_10E/GpL16-k0 (antibody, human IgG1, kappa)
heavy 1: not shown
heavy 2: not shown
light: DIVMTQSPLSLPVTPGEPASISCQASESLVHSNRNTYLHWYLQKPGQSPQLLIYKVSNRFSGVPDRFSGSGSGTDFTLKISRVEAEDVGVYYCSQNTHVPPTFGQGTKVEIERTVAAPSVFIFPPSDEQLKSGTASVVCLLNNFYPREAKVQWKVDNALQSGNSQESVTEQDSKDSTYSLSSTLTLSKADYEKHKVYACEVTHQGLSSPVTKSFNRGEC
notes: copies: 1 + 1 + 2
B7: GpH7-A5/GpH7-B3 variant P238_15Y/GpL16-k0 (antibody, human IgG1, kappa)
heavy 1: not shown
heavy 2: not shown
light: DIVMTQSPLSLPVTPGEPASISCQASESLVHSNRNTYLHWYLQKPGQSPQLLIYKVSNRFSGVPDRFSGSGSGTDFTLKISRVEAEDVGVYYCSQNTHVPPTFGQGTKVEIERTVAAPSVFIFPPSDEQLKSGTASVVCLLNNFYPREAKVQWKVDNALQSGNSQESVTEQDSKDSTYSLSSTLTLSKADYEKHKVYACEVTHQGLSSPVTKSFNRGEC
notes: copies: 1 + 1 + 2
B8: GpH7-A5/GpH7-B3 variant P271_03V/GpL16-k0 (antibody, human IgG1, kappa)
heavy 1: not shown
heavy 2: not shown
light: DIVMTQSPLSLPVTPGEPASISCQASESLVHSNRNTYLHWYLQKPGQSPQLLIYKVSNRFSGVPDRFSGSGSGTDFTLKISRVEAEDVGVYYCSQNTHVPPTFGQGTKVEIERTVAAPSVFIFPPSDEQLKSGTASVVCLLNNFYPREAKVQWKVDNALQSGNSQESVTEQDSKDSTYSLSSTLTLSKADYEKHKVYACEVTHQGLSSPVTKSFNRGEC
notes: copies: 1 + 1 + 2
B9: GpH7-A5/GpH7-B3 variant L328_18N/GpL16-k0 (antibody, human IgG1, kappa)
heavy 1: not shown
heavy 2: not shown
light: DIVMTQSPLSLPVTPGEPASISCQASESLVHSNRNTYLHWYLQKPGQSPQLLIYKVSNRFSGVPDRFSGSGSGTDFTLKISRVEAEDVGVYYCSQNTHVPPTFGQGTKVEIERTVAAPSVFIFPPSDEQLKSGTASVVCLLNNFYPREAKVQWKVDNALQSGNSQESVTEQDSKDSTYSLSSTLTLSKADYEKHKVYACEVTHQGLSSPVTKSFNRGEC
notes: copies: 1 + 1 + 2
B10: GpH7-A5/GpH7-B3 variant P271_02A/GpL16-k0 (antibody, human IgG1, kappa)
heavy 1: not shown
heavy 2: not shown
light: DIVMTQSPLSLPVTPGEPASISCQASESLVHSNRNTYLHWYLQKPGQSPQLLIYKVSNRFSGVPDRFSGSGSGTDFTLKISRVEAEDVGVYYCSQNTHVPPTFGQGTKVEIERTVAAPSVFIFPPSDEQLKSGTASVVCLLNNFYPREAKVQWKVDNALQSGNSQESVTEQDSKDSTYSLSSTLTLSKADYEKHKVYACEVTHQGLSSPVTKSFNRGEC
notes: copies: 1 + 1 + 2
B11: GpH7-A5/GpH7-B3 variant P238_08L/GpL16-k0 (antibody, human IgG1, kappa)
heavy 1: not shown
heavy 2: not shown
light: DIVMTQSPLSLPVTPGEPASISCQASESLVHSNRNTYLHWYLQKPGQSPQLLIYKVSNRFSGVPDRFSGSGSGTDFTLKISRVEAEDVGVYYCSQNTHVPPTFGQGTKVEIERTVAAPSVFIFPPSDEQLKSGTASVVCLLNNFYPREAKVQWKVDNALQSGNSQESVTEQDSKDSTYSLSSTLTLSKADYEKHKVYACEVTHQGLSSPVTKSFNRGEC
notes: copies: 1 + 1 + 2
B12: GpH7-A5/GpH7-B3 variant N325_09D/GpL16-k0 (antibody, human IgG1, kappa)
heavy 1: not shown
heavy 2: not shown
light: DIVMTQSPLSLPVTPGEPASISCQASESLVHSNRNTYLHWYLQKPGQSPQLLIYKVSNRFSGVPDRFSGSGSGTDFTLKISRVEAEDVGVYYCSQNTHVPPTFGQGTKVEIERTVAAPSVFIFPPSDEQLKSGTASVVCLLNNFYPREAKVQWKVDNALQSGNSQESVTEQDSKDSTYSLSSTLTLSKADYEKHKVYACEVTHQGLSSPVTKSFNRGEC
notes: copies: 1 + 1 + 2
B13: GpH7-A5/GpH7-B3 variant L328_15Y/GpL16-k0 (antibody, human IgG1, kappa)
heavy 1: not shown
heavy 2: not shown
light: DIVMTQSPLSLPVTPGEPASISCQASESLVHSNRNTYLHWYLQKPGQSPQLLIYKVSNRFSGVPDRFSGSGSGTDFTLKISRVEAEDVGVYYCSQNTHVPPTFGQGTKVEIERTVAAPSVFIFPPSDEQLKSGTASVVCLLNNFYPREAKVQWKVDNALQSGNSQESVTEQDSKDSTYSLSSTLTLSKADYEKHKVYACEVTHQGLSSPVTKSFNRGEC
notes: copies: 1 + 1 + 2
B14: GpH7-A5/GpH7-B3 variant L328_16H/GpL16-k0 (antibody, human IgG1, kappa)
heavy 1: not shown
heavy 2: not shown
light: DIVMTQSPLSLPVTPGEPASISCQASESLVHSNRNTYLHWYLQKPGQSPQLLIYKVSNRFSGVPDRFSGSGSGTDFTLKISRVEAEDVGVYYCSQNTHVPPTFGQGTKVEIERTVAAPSVFIFPPSDEQLKSGTASVVCLLNNFYPREAKVQWKVDNALQSGNSQESVTEQDSKDSTYSLSSTLTLSKADYEKHKVYACEVTHQGLSSPVTKSFNRGEC
notes: copies: 1 + 1 + 2
B15: GpH7-A5/GpH7-B3 variant N325_16H/GpL16-k0 (antibody, human IgG1, kappa)
heavy 1: not shown
heavy 2: not shown
light: DIVMTQSPLSLPVTPGEPASISCQASESLVHSNRNTYLHWYLQKPGQSPQLLIYKVSNRFSGVPDRFSGSGSGTDFTLKISRVEAEDVGVYYCSQNTHVPPTFGQGTKVEIERTVAAPSVFIFPPSDEQLKSGTASVVCLLNNFYPREAKVQWKVDNALQSGNSQESVTEQDSKDSTYSLSSTLTLSKADYEKHKVYACEVTHQGLSSPVTKSFNRGEC
notes: copies: 1 + 1 + 2
B16: GpH7-A5/GpH7-B3 variant N325_13S/GpL16-k0 (antibody, human IgG1, kappa)
heavy 1: not shown
heavy 2: not shown
light: DIVMTQSPLSLPVTPGEPASISCQASESLVHSNRNTYLHWYLQKPGQSPQLLIYKVSNRFSGVPDRFSGSGSGTDFTLKISRVEAEDVGVYYCSQNTHVPPTFGQGTKVEIERTVAAPSVFIFPPSDEQLKSGTASVVCLLNNFYPREAKVQWKVDNALQSGNSQESVTEQDSKDSTYSLSSTLTLSKADYEKHKVYACEVTHQGLSSPVTKSFNRGEC
notes: copies: 1 + 1 + 2

Biological target: T1, FcγRIIIa (human, UniProt P08637 17-208)
T1 construct: extracellular domain; also called 3a; FcγRIIIa extracellular domain
T1 sequence (P08637 other isoform, or with tags, fused parts or gaps): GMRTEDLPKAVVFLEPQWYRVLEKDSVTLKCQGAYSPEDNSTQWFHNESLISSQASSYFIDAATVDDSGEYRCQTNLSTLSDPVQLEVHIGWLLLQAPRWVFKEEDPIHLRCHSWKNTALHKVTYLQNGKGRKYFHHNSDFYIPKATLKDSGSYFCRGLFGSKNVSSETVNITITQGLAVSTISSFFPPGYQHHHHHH
Assay: SPR (Biacore);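 also: antibody variants captured on an SPR sensor chip, with FcγRIIIa passed over as analyte in HBS-EP+ buffer at 25 °C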

Binder | He/Con 3a
B1 | 77.4 % of GpH7-A5/GpH7-B3/GpL16-k0
B2 | 100 % of GpH7-A5/GpH7-B3/GpL16-k0
B3 | 52.7 % of GpH7-A5/GpH7-B3/GpL16-k0
B4 | 83.4 % of GpH7-A5/GpH7-B3/GpL16-k0
B5 | 119 % of GpH7-A5/GpH7-B3/GpL16-k0
B6 | 98.9 % of GpH7-A5/GpH7-B3/GpL16-k0
B7 | 61 % of GpH7-A5/GpH7-B3/GpL16-k0
B8 | 73.5 % of GpH7-A5/GpH7-B3/GpL16-k0
B9 | 51.1 % of GpH7-A5/GpH7-B3/GpL16-k0
B10 | 83.7 % of GpH7-A5/GpH7-B3/GpL16-k0
B11 | 71.3 % of GpH7-A5/GpH7-B3/GpL16-k0
B12 | 53 % of GpH7-A5/GpH7-B3/GpL16-k0
B13 | 70.2 % of GpH7-A5/GpH7-B3/GpL16-k0
B14 | 55.9 % of GpH7-A5/GpH7-B3/GpL16-k0
B15 | 68 % of GpH7-A5/GpH7-B3/GpL16-k0
B16 | 71.9 % of GpH7-A5/GpH7-B3/GpL16-k0
